Data as given in US20240058441A1 (published 2024).

Molecular target: KRas protein (purified) (UniProt P01116 1-186)
Test: SPR

Kd [nM]	Binder
1.09	TKDm molecule (control molecule of TKD with mutated CTM, CTMmt, incapable of being recognized by lysosome) (VHH) VHH: DVQLQESGGGLVQAGGSLRLSCVASGRTFSTYPTGWFRQAPGKEREFVARINLSGGITNYADSVKGRFTISRDNAKNTVYLQMNSLKPEDTAVYYCGGGSTTWAGGIPTNFDYWGQGTQVTVSS
7.24	TKD molecule (nanobody-mediated KRas protein targeting degradation system; fusion protein BR2 - anti-KRas nanobody VHH - CTM) (VHH) VHH: DVQLQESGGGLVQAGGSLRLSCVASGRTFSTYPTGWFRQAPGKEREFVARINLSGGITNYADSVKGRFTISRDNAKNTVYLQMNSLKPEDTAVYYCGGGSTTWAGGIPTNFDYWGQGTQVTVSS
